In general, IC50 refers to the concentration needed to halve the response being measured. Read a high IC50 as lower potency. By EC50 (read off the curve) is commonly meant the concentration giving half of the maximal effect. Read a high EC50 (read off the curve) as lower potency in that assay.

Data on four substances can be found in patent publication US10450368.

Experiment [1] has as its target Jo-1 (UniProt P12081). As to the kind of experiment: AtheNA, Ab 6.25 ug/ml.
The target of experiment [2] is RNP (ribonucleoprotein). Kind of experiment: AtheNA, Ab 6.25 ug/ml.
Experiment [3] has as its target SSB (UniProt P05455). Kind of experiment: AtheNA, Ab 6.25 ug/ml.
For experiment [4], the target named is Scl-70 (UniProt P11387). As to the kind of experiment: AtheNA, Ab 6.25 ug/ml.
Experiment [5] deals with Centromere B (UniProt P07199). Kind of experiment: AtheNA, Ab 6.25 ug/ml.
In experiment [6] the target is Sm (Smith antigen). Kind of experiment: AtheNA, Ab 6.25 ug/ml.
The target of experiment [7] is Histones. As to the kind of experiment: AtheNA, Ab 6.25 ug/ml.
The target in experiment [8] is SSA. As to the kind of experiment: AtheNA, Ab 6.25 ug/ml.
In experiment [9] the target is Jo-1 (UniProt P12081). As to the kind of experiment: AtheNA, Ab 12.5 ug/ml.
For experiment [10], the target named is RNP (ribonucleoprotein). As to the kind of experiment: AtheNA, Ab 12.5 ug/ml.
The target of experiment [11] is SSB (UniProt P05455). Kind of experiment: AtheNA, Ab 12.5 ug/ml.
In experiment [12] the target is Scl-70 (UniProt P11387). Kind of experiment: AtheNA, Ab 12.5 ug/ml.
For experiment [13], the target named is Centromere B (UniProt P07199). As to the kind of experiment: AtheNA, Ab 12.5 ug/ml.
Experiment [14] has as its target Sm (Smith antigen). As to the kind of experiment: AtheNA, Ab 12.5 ug/ml.
In experiment [15] the target is Histones. Kind of experiment: AtheNA, Ab 12.5 ug/ml.
Experiment [16] deals with SSA. As to the kind of experiment: AtheNA, Ab 12.5 ug/ml.
In experiment [17] the target is Jo-1 (UniProt P12081). Kind of experiment: AtheNA, Ab 25 ug/ml.
Experiment [18] deals with RNP (ribonucleoprotein). Kind of experiment: AtheNA, Ab 25 ug/ml.
Experiment [19] addresses SSB (UniProt P05455). As to the kind of experiment: AtheNA, Ab 25 ug/ml.
Experiment [20] addresses Scl-70 (UniProt P11387). Kind of experiment: AtheNA, Ab 25 ug/ml.
For experiment [21], the target named is Centromere B (UniProt P07199). As to the kind of experiment: AtheNA, Ab 25 ug/ml.
Experiment [22] addresses Sm (Smith antigen). Kind of experiment: AtheNA, Ab 25 ug/ml.
Experiment [23] has as its target Histones. As to the kind of experiment: AtheNA, Ab 25 ug/ml.
Experiment [24] has as its target SSA. As to the kind of experiment: AtheNA, Ab 25 ug/ml.
For experiment [25], the target named is Jo-1 (UniProt P12081). As to the kind of experiment: AtheNA, Ab 50 ug/ml.
Experiment [26] deals with SSB (UniProt P05455). Kind of experiment: AtheNA, Ab 50 ug/ml.
Experiment [27] deals with Jo-1 (UniProt P12081). As to the kind of experiment: AtheNA, Ab 25 ug/ml. The source holds these as a separate data set.
The target of experiment [28] is RNP (ribonucleoprotein). As to the kind of experiment: AtheNA, Ab 25 ug/ml. This is another data set of the same source.
In experiment [29] the target is SSB (UniProt P05455). As to the kind of experiment: AtheNA, Ab 25 ug/ml. The source holds these as a separate data set.
Experiment [30] addresses Scl-70 (UniProt P11387). Kind of experiment: AtheNA, Ab 25 ug/ml. This is another data set of the same source.
Experiment [31] has as its target Centromere B (UniProt P07199). As to the kind of experiment: AtheNA, Ab 25 ug/ml. This is another data set of the same source.
Experiment [32] has as its target Sm (Smith antigen). Kind of experiment: AtheNA, Ab 25 ug/ml. This is another data set of the same source.
Experiment [33] has as its target Histones. Kind of experiment: AtheNA, Ab 25 ug/ml. This is another data set of the same source.
Experiment [34] addresses SSA. Kind of experiment: AtheNA, Ab 25 ug/ml. This is another data set of the same source.
Experiment [35] has as its target Jo-1 (UniProt P12081). Kind of experiment: AtheNA, Ab 50 ug/ml. This is another data set of the same source.
For experiment [36], the target named is SSB (UniProt P05455). As to the kind of experiment: AtheNA, Ab 50 ug/ml. The source holds these as a separate data set.
For another experiment, the target named is CH505w136.B18D8gp120. Kind of experiment: ELISA.
A further experiment concerns the target CH505.M10D8gp120. Kind of experiment: ELISA. In general terms: In an ELISA, binding on a coated surface is turned into a signal by an enzyme label.
The target in another experiment is CH505.M9D8gp120/293F. Kind of experiment: ELISA.
A further experiment concerns the target CH505.M7D8gp120/293F. Kind of experiment: ELISA.
The target in a further experiment is CH505.M19D8gp120. Kind of experiment: ELISA.
The target in experiment [37] is CH505.TF mutant gp120 M20 (HIV-1). As to the kind of experiment: ELISA.
Another experiment deals with CH505w030.20D8gp120/293F. As to the kind of experiment: ELISA.
The next experiment has as its target CH505.M11D8gp120/293F. As to the kind of experiment: ELISA.
A further experiment has as its target CH505.M21D8gp120/293F. As to the kind of experiment: ELISA.
In a further experiment the target is CH0505_CON D7gp120/293i. As to the kind of experiment: ELISA.
Experiment [38] has as its target CH505.TF mutant gp120 M6 (HIV-1). Kind of experiment: ELISA.
The target of a further experiment is CH505w020.14D8gp120. Kind of experiment: ELISA.
The next experiment addresses CH505.M5D8gp120293F. Kind of experiment: ELISA.
The next experiment addresses CH505.w30.12D8gp120. As to the kind of experiment: ELISA.
Experiment [39] concerns the target CH505.TF mutant gp120 M8 (HIV-1). Kind of experiment: ELISA.
Experiment [40] addresses HIV-1 CH505 transmitted/founder gp120 Env (HIV-1). As to the kind of experiment: competition ELISA, blocking of sCD4 binding to gp120.
The target in experiment [41] is Sm (Smith antigen). Kind of experiment: AtheNA, Ab 50 ug/ml.
Experiment [42] addresses Histones. As to the kind of experiment: AtheNA, Ab 50 ug/ml.
Experiment [43] has as its target SSA. As to the kind of experiment: AtheNA, Ab 50 ug/ml.
Experiment [44] deals with HIV-1 CH505 transmitted/founder gp120 Env (HIV-1). As to the kind of experiment: competition ELISA, blocking of CH106 binding to gp120.
For experiment [45], the target named is HIV-1 Env resurface core protein 3 (RSC3). Kind of experiment: direct-binding ELISA (OD450), panel 'RSC3'.
The next experiment deals with CH505.TF gp120 delta371I. As to the kind of experiment: direct-binding ELISA (OD450), panel 'CH505.TF gp120 delta371I'.
The target in a further experiment is RSC3 delta371I. Kind of experiment: ELISA.
Experiment [46] has as its target CH505.TF mutant gp120 M8 (HIV-1). As to the kind of experiment: direct-binding ELISA (OD450), panel 'CH505.TF gp120 M8'.
In experiment [47] the target is CH505 TF loop D mutant M7 Env (pseudovirus) (HIV-1). Kind of experiment: cell-based or functional assay.
For experiment [48], the target named is CH505 TF loop D mutant M9 Env (pseudovirus) (HIV-1). Kind of experiment: cell-based or functional assay.
For experiment [49], the target named is CH505 TF loop D mutant M20 Env (pseudovirus) (HIV-1). Kind of experiment: cell-based or functional assay.
The target of experiment [50] is CH505 TF loop D mutant M8 Env (pseudovirus) (HIV-1). As to the kind of experiment: cell-based or functional assay.

Sequence of Centromere B (P07199 whole entry): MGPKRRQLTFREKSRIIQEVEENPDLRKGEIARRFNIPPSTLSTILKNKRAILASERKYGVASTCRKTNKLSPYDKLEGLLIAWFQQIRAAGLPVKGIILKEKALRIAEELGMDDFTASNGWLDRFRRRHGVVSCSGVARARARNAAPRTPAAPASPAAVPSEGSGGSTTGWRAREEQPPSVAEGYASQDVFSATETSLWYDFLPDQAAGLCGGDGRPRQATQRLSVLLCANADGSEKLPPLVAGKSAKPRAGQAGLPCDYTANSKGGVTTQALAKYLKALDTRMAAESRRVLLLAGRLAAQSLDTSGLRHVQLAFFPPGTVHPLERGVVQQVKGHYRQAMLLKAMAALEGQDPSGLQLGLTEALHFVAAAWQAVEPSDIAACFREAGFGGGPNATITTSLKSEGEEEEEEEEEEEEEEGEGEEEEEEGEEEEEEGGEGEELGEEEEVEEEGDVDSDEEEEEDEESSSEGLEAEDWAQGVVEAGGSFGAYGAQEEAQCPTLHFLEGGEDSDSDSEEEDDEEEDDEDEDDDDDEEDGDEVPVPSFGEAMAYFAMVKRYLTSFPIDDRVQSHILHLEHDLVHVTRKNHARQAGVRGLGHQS
Sequence of SSB (P05455 whole entry): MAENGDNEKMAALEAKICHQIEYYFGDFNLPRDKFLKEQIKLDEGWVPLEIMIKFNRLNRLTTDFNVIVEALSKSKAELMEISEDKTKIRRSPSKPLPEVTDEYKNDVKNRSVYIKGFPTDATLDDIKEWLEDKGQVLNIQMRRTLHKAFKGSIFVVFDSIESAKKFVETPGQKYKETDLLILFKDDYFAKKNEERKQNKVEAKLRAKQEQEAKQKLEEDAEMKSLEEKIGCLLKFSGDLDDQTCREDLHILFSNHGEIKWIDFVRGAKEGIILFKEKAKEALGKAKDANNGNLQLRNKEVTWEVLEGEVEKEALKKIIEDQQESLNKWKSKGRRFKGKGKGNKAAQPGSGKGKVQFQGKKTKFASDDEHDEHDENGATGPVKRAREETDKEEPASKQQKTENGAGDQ
Sequence of Jo-1 (P12081 whole entry): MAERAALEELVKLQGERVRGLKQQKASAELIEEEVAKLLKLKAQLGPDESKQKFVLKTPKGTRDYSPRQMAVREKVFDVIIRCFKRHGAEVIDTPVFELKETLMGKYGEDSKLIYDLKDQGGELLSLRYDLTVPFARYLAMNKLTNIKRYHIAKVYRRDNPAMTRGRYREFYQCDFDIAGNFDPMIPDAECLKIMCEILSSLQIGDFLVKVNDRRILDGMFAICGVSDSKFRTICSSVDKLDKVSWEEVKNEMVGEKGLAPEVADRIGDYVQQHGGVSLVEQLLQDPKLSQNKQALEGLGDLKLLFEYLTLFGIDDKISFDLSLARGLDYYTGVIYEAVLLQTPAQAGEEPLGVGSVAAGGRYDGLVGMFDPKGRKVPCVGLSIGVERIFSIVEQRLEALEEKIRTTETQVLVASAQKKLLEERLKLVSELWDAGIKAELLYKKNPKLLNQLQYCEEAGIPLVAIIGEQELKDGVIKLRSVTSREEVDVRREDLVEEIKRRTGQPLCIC
Sequence of Scl-70 (P11387 whole entry): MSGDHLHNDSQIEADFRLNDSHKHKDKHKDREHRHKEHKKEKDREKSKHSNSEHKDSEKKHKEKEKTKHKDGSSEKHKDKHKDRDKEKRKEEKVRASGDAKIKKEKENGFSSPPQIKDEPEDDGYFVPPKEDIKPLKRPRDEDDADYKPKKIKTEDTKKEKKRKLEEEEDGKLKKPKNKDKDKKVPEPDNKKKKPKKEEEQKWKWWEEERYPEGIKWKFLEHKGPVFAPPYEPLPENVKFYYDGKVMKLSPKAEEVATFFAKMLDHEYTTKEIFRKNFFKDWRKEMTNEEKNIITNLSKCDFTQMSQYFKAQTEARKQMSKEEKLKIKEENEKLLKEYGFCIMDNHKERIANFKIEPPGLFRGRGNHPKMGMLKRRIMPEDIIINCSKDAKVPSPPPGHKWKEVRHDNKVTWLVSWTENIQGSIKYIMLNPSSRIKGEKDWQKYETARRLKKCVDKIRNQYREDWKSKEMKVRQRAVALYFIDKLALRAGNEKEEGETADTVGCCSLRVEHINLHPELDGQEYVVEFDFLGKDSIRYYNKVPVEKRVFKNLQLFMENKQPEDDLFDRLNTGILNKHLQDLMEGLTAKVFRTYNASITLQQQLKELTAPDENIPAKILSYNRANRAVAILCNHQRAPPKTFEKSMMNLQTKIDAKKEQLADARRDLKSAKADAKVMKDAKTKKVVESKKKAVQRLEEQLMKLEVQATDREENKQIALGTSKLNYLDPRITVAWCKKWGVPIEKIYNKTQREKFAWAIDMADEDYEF

For 4E10 (antibody), the AtheNA signal (relative luminescence units) was 113 with Jo-1 [1]; 3 with RNP (ribonucleoprotein) [2]; 178 in the experiment with SSB [3]; 1 with Scl-70 [4]; 2 with Centromere B [5]; 3 with Sm (Smith antigen) [6]. Further, the AtheNA signal (relative luminescence units) in the experiment with Histones [7] was found to be 6; in the experiment with SSA [8], 17; with Jo-1 [9], 131; with RNP (ribonucleoprotein) [10], 3; in the experiment with SSB [11], 199; in the experiment with Scl-70 [12], 0. For the same substance, the AtheNA signal (relative luminescence units) amounted to 1 with Centromere B [13]; 3 in the experiment with Sm (Smith antigen) [14]; 7 with Histones [15]; 21 with SSA [16]; 160 in the experiment with Jo-1 [17]; 3 with RNP (ribonucleoprotein) [18]. Further, the AtheNA signal (relative luminescence units) with SSB [19] came out at 227; with Scl-70 [20], 1; in the experiment with Centromere B [21] it was 3; in the experiment with Sm (Smith antigen) [22], 2; in the experiment with Histones [23] it was 10; with SSA [24] it was 33. In addition, the AtheNA signal (relative luminescence units) in the experiment with Jo-1 [25] was determined as 190; in the experiment with SSB [26], 263; in the experiment with Jo-1 [27], 206; with RNP (ribonucleoprotein) [28], 20; with SSB [29], 189; in the experiment with Scl-70 [30], 4. Also, the AtheNA signal (relative luminescence units) with Centromere B [31] was determined as 9; with Sm (Smith antigen) [32], 46; with Histones [33], 24; with SSA [34], 81; with Jo-1 [35], 227; in the experiment with SSB [36] it was 207.
Take CH235 IA1 (antibody): the AtheNA signal (relative luminescence units) in the experiment with Jo-1 [1] amounted to 129; in the experiment with RNP (ribonucleoprotein) [2] it was 46; with SSB [3], 117; with Scl-70 [4], 31; in the experiment with Centromere B [5], 87; with Sm (Smith antigen) [6], 77. Also, the AtheNA signal (relative luminescence units) with Histones [7] worked out at 118; with SSA [8], 175; with Jo-1 [9], 152; in the experiment with RNP (ribonucleoprotein) [10], 56; in the experiment with SSB [11], 167; with Scl-70 [12] it was 40. For the same substance, the AtheNA signal (relative luminescence units) turned out to be 81 in the experiment with Centromere B [13]; 77 in the experiment with Sm (Smith antigen) [14]; 100 with Histones [15]; 151 with SSA [16]; 171 in the experiment with Jo-1 [27]; 67 with RNP (ribonucleoprotein) [28]. The AtheNA signal (relative luminescence units) worked out at 197 with SSB [29]; 52 with Scl-70 [30]; 80 in the experiment with Centromere B [31]; 110 with Sm (Smith antigen) [32]; 99 with Histones [33]; 150 in the experiment with SSA [34]. The AtheNA signal (relative luminescence units) with Jo-1 [35] stood at 176; in the experiment with SSB [36], 217; in the experiment with Sm (Smith antigen) [41], 104; in the experiment with Histones [42], 100; with SSA [43] it was 149. Also, the LogAUC in the experiment with CH505w136.B18D8gp120 was 2.36; with CH505.M10D8gp120, 7.08; in the experiment with CH505.M9D8gp120/293F it was 0; with CH505.M7D8gp120/293F, 0; in the experiment with CH505.M19D8gp120, 2.78; in [37], 0. In addition, the LogAUC with CH505w030.20D8gp120/293F was determined as 4.82; with CH505.M11D8gp120/293F, 2.85; with CH505.M21D8gp120/293F it was 0; in the experiment with CH0505_CON D7gp120/293i it was 6.89; in experiment [38], 6.1; in the experiment with CH505w020.14D8gp120, 6.52. Moreover, the LogAUC amounted to 9.18 with CH505.M5D8gp120293F, 2.4 with CH505.w30.12D8gp120 and 0 in experiment [39]. Further, the IC50 in experiment [40] is greater than 100 µg/mL; in [44], 82.4 µg/mL.
As to 2G12 (antibody), the concentration giving a half-maximal response (EC50 (read off the curve)) in experiment [45] turned out to be 0.01 µg/mL; with CH505.TF gp120 delta371I, 0.2 µg/mL; with RSC3 delta371I, 0.01 µg/mL; in [46], 0.2 µg/mL.
Turning to CH235.9 N30T (antibody), the neutralization IC50, TZM-bl pseudovirus assay was greater than 44 µg/mL in [47], greater than 44 µg/mL in experiment [48], greater than 44 µg/mL in [49] and 24.3 µg/mL in [50]. The substance further registered a fold increase of neutralization IC50 against CH235.9 in [50] of 37 fold.
